Target: wild-type human TRAILR1 (human), O00220
Test: radioligand binding; competition on cells: 4x10^5 murine fibroblasts expressing the (chimeric) TRAIL receptor in PFA (PBS, 2% FCS, 0.002% sodium azide), 83 ng/ml 125I-TRAIL with or without unlabeled recombinant human TRAIL (83-5300 ng/ml), 4 hours on ice; cells spun through phthalate oil; 68 kDa used for TRAIL
Details: remark: other sources report otherwise

B1: Flag-tagged recombinant human TRAIL (sTRAIL), unlabeled, P50591 95-281 (ligand)
chain: TSEETISTVQEKQQNISPLVRERGPQRVAAHITGTRGRSNTLSSPNSKNEKALGRKINSWESSRSGHSFLSNLHLRNGELVIHEKGFYYIYSQTYFRFQEEIKENTKNDKQMVQYIYKYTSYPDPILLMKSARNSCWSKDAEYGLYSIYQGGIFELKENDRIFVSVTNEHLIDMDHEASFFGAFLVG
  IC50: 17.7 nM
